Reference: paper PMC3503981

Target: PfUDN, N-terminal fragment of Plasmodium falciparum UvrD helicase (P. falciparum 3D7)

stimulation of the unwinding (helicase) activity of PfUDN (10 nM) on the 3′ to 5′ direction-specific substrate 3B by PfMLH (8 and 16 nM) pre-incubated with the substrate, against PfUDN alone: 22 to 36%
Substance: PfMLH (P. falciparum MutL homologue) (natural protein)
